Consider 3 molecules from patent publication US20180346600A1 (AJOU UNIVERSITY INDUSTRY ACADEMIC COOPERATION FOUNDATION, published 2018).

The target in test [1] is T1, displayed FcCH3A, B240 (K392S/K409R/D399L), on yeast cell surface (human, UniProt P0DOX5 227-449 = IgG part).
T1 construct: also called B240 CH3A chain (yeast)
T1 Fc: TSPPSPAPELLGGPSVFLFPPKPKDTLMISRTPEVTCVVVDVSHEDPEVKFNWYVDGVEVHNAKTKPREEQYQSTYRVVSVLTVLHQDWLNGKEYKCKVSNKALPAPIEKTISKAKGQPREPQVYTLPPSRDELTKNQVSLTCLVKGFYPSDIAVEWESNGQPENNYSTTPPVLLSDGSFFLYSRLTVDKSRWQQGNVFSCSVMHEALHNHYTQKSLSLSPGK
The experiment in a line: flow cytometry of diploid yeast: MFI of Flag-tagged secreted FcCH3B held on displayed FcCH3A (anti-Flag mouse mAb and PE anti-mouse antibody), normalised to EW-RVT = 100 %. The text has this:
(§1) FACS was sequentially performed four times. […] Table 9 below summarizes the mutation pairs introduced into individual clones selected from the respective LibA2 and LibB2 libraries.
In general terms: A flow cytometer gives signals particle by particle.

Test [2] addresses T2, Hole-Hole (displayed FcCH3A on yeast cell surface).
T2 construct: also called Hole-Hole (Genentech) CH3A chain (yeast), T366S/L368A/Y407V
T2 Fc: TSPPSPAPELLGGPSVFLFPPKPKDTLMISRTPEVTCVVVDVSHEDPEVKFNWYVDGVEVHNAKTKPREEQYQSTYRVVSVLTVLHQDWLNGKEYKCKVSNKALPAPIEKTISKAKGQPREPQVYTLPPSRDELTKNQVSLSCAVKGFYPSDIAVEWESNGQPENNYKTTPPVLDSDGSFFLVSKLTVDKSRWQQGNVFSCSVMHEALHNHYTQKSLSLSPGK
The experiment in a line: flow cytometry histogram (PE, FL2-H) of diploid yeast: Flag-tagged secreted FcCH3B held on displayed FcCH3A, anti-Flag mouse mAb and PE anti-mouse antibody. Here is the method:
Specifically, the diploid in which the expression of the heterodimeric heavy chain constant region was induced was reacted with an antibody recognizing flag-tag included in the secreted FcCH3B (anti-Flag mouse mAb, F3165) (Sigma-Aldrich) and an antibody conjugated with PE (phycoerythrin conjugated anti-mouse mAb, sc-3738) (Santa Cruz biotechnology), and a signal of PE was analyzed by flow cytometry.

For test [3], the target named is T3, displayed FcCH3A, B256 (K392N/D399L), on yeast cell surface (human, UniProt P0DOX5 227-449 = IgG part).
T3 construct: also called B256 CH3A chain (yeast)
T3 Fc: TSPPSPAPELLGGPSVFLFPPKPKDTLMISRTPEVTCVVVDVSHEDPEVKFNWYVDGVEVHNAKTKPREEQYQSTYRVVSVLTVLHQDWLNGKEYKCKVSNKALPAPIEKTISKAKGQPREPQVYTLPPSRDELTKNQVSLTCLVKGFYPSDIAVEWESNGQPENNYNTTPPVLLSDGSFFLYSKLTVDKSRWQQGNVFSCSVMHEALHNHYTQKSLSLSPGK
The test is described as follows: flow cytometry of diploid yeast: MFI of Flag-tagged secreted FcCH3B held on displayed FcCH3A (anti-Flag mouse mAb and PE anti-mouse antibody), normalised to EW-RVT = 100 %.
From the text: as §1

B1: secreted FcCH3B, B240 (D399G/K392G/K409M), from yeast (other)
chain: TSPPSPAPELLGGPSVFLFPPKPKDTLMISRTPEVTCVVVDVSHEDPEVKFNWYVDGVEVHNAKTKPREEQYQSTYRVVSVLTVLHQDWLNGKEYKCKVSNKALPAPIEKTISKAKGQPREPQVYTLPPSRDELTKNQVSLTCLVKGFYPSDIAVEWESNGQPENNYGTTPPVLGSDGSFFLYSMLTVDKSRWQQGNVFSCSVMHEALHNHYTQKSLSLSPGK
notes: also called B240 CH3B chain (yeast); not shown: flag-tag
On to B1, for which, in test [1], the binding result is recorded as “binds”.

B2: Hole-Hole (secreted FcCH3B from yeast) (other)
secreted Fc chain (hinge-CH2-CH3B): TSPPSPAPELLGGPSVFLFPPKPKDTLMISRTPEVTCVVVDVSHEDPEVKFNWYVDGVEVHNAKTKPREEQYQSTYRVVSVLTVLHQDWLNGKEYKCKVSNKALPAPIEKTISKAKGQPREPQVYTLPPSRDELTKNQVSLSCAVKGFYPSDIAVEWESNGQPENNYKTTPPVLDSDGSFFLVSKLTVDKSRWQQGNVFSCSVMHEALHNHYTQKSLSLSPGK
notes: also called Hole-Hole (Genentech) CH3B chain (yeast), T366S/L368A/Y407V
As to B2, the binding result in test [2] was “no binding”.

B3: secreted FcCH3B, B256 (D399V/K392G/K409M), from yeast (other)
chain: TSPPSPAPELLGGPSVFLFPPKPKDTLMISRTPEVTCVVVDVSHEDPEVKFNWYVDGVEVHNAKTKPREEQYQSTYRVVSVLTVLHQDWLNGKEYKCKVSNKALPAPIEKTISKAKGQPREPQVYTLPPSRDELTKNQVSLTCLVKGFYPSDIAVEWESNGQPENNYGTTPPVLVSDGSFFLYSMLTVDKSRWQQGNVFSCSVMHEALHNHYTQKSLSLSPGK
notes: also called B256 CH3B chain (yeast); not shown: flag-tag
As for B3, the binding result in test [3] is given as “binds”.
